Measured values published in publication doi:10.1101/483925 (bioRxiv, 2018).

T1: FD, full-length, phosphomimic variant T282E (Arabidopsis thaliana, UniProt Q84JK2 1-285, T282E)
T1 sequence: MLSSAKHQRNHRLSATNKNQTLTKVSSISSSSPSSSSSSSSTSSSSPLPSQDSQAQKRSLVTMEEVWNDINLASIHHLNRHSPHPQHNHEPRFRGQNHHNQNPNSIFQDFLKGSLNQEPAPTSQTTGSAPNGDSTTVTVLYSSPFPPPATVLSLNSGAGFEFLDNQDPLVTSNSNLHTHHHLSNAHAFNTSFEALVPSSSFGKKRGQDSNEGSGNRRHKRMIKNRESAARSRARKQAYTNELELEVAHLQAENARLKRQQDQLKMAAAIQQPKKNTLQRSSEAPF

B1: FLOWERING LOCUS T (FT) (natural protein)
chain: not shown
B2: FD-C_T282E, phosphomimic variant of the C-terminal domain of FD (amino acids 203-285) (domain or fragment)
chain: KKRGQDSNEGSGNRRHKRMIKNRESAARSRARKQAYTNELELEVAHLQAENARLKRQQDQLKMAAAIQQPKKNTLQRSSEAPF
B3: TERMINAL FLOWER 1 (TFL1) (natural protein)
chain: not shown
B4: 14-3-3n (At3g02520; GRF7) (natural protein)
chain: MSSSREENVYLAKLAEQAERYEEMVEFMEKVAKTVDTDELTVEERNLLSVAYKNVIGARRASWRIISSIEQKEESRGNDDHVSIIKDYRGKIETELSKICDGILNLLDSHLVPTASLAESKVFYLKMKGDYHRYLAEFKTGAERKEAAESTLVAYKSAQDIALADLAPTHPIRLGLALNFSVFYYEILNSPDRACSLAKQAFDEAISELDTLGEESYKDSTLIMQLLRDNLTLWNSDINDEAGGDEIKEASKHEPEEGKPAETGQ

Columns and labels:
[1] = biological target: B4; experiment: native gel or EMSA
[2] = biological target: T1, FD, full-length, phosphomimic variant …; experiment: native gel or EMSA

Binder | binding result [1] | binding result [2]
B1 | binds | 
B2 | binds | 
B3 | binds | 
B4 |  | binds
